# Laboratory results from patent CN116769021A.
# Like-named read-outs stand apart in the source and are kept apart here.
# B1: 抗AHSV VP7单克隆抗体1H4 (monoclonal antibody 1H4 against African horse sickness virus VP7 protein) (antibody, V domains shown)
# VH: EVQLVESGGGLVQPGGSLKLSCAASGFTFSRYGMSWVRQTPDKRLELVAIIKNDGRSSYYPDSVKGRFTIYRDNAKNTLYLQMSTLKSEDTAMYHCAYGSSLYWYFDVWGAGTTVTVSS
# VL: DVLMTQTPLSLPVSLGDQASISCRSSQSIVHSNGNTYLEWYLQKPGQSPKLLIYKVSNRFSGVPARFSGSGSGTGFTLKISRVEAEDLGVYYCFQGSHVPPTFGGGTKLEIK
# Experiments:
# [1] = target: AHSV VP7重组蛋白 (recombinant African horse sickness virus VP7 protein) (African horse sickness virus)
# [2] = target: AHSV VP7重组蛋白 (recombinant African horse sickness virus VP7 protein) (African horse sickness virus); test: indirect ELISA on coated recombinant VP7 (0.5 ug/mL); 1H4 at 0.5 ug/mL (1:4000)
# [3] = target: AHSV VP7重组蛋白 (recombinant African horse sickness virus VP7 protein) (African horse sickness virus); test: indirect ELISA on coated recombinant VP7; end-point titer by P/N > 2.1
# [4] = target: AHSV VP7重组蛋白 (recombinant African horse sickness virus VP7 protein) (African horse sickness virus); test: indirect ELISA on coated recombinant VP7 (0.5 ug/mL); 1H4 at 1 ug/mL (1:2000)
# [5] = target: AHSV VP7重组蛋白 (recombinant African horse sickness virus VP7 protein) (African horse sickness virus); remark: listed apart in the source
# [6] = target: AHSV VP7重组蛋白 (recombinant African horse sickness virus VP7 protein) (African horse sickness virus); test: indirect ELISA on coated recombinant VP7 (0.5 ug/mL); 1H4 at 0.25 ug/mL (1:8000)
Molecule,OD450 [1],OD450 [2],"效价 (ELISA titer, P/N > 2.1) (dilution factor (1:x)) [3]",效价对应的稀释浓度 (antibody concentration at the end-point titer) [3],OD450 [4],OD450 [5],OD450 [6]
阴性抗体 (negative antibody),0.0378 OD450,,,,,,
B1,,2.87 OD450,1.02e+06,1.95 ng/mL,4.09 OD450,3.58 OD450,2.93 OD450
